Reference: the supplement of paper PMC11196671

Legend:
[1] = PET hydrolysis product formed (TPA+MHET+BHET, UV-Vis) per mg enzyme (mmol/mg enzyme); higher = more PET depolymerisation activity; extreme values may be limits of the assay; conditions: 24 h
Protocol: (§1)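 Purified PET hydrolases, 2.5 ug enzyme on 3.5 mg amorphous PET film (aFilm) or crystalline PET powder (cryPow) in 0.5 mL of 50 mM buffer (NaCitrate pH 4.5/5.5, NaPhosphate 6.5/7.5, glycine 8.5/9.5) at 60 or 70 C with shaking for 24 h. Total aromatic product by UV-Vis (260/280 nm, blank-subtracted, normalised per mg enzyme) and individual TPA, MHET, BHET concentrations by UHPLC-DAD at 240 nm; duplicate reactions.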

[2] = as above; conditions: 2 h
Protocol: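 Purified PET hydrolases (His-SUMO cleaved, E. coli C41(DE3) small-scale expression), 2.5 ug enzyme on 3.5 mg amorphous PET film (aFilm) or crystalline PET powder (cryPow) in 0.5 mL of 50 mM buffer (NaCitrate pH 4.5/5.5, NaPhosphate 6.5/7.5, glycine 8.5/9.5) at 60 or 70 C with shaking for 2 h. Soluble aromatic products (TPA+MHET+BHET) were quantified by UV-Vis at 260/280 nm, blank-subtracted against the no-enzyme control, and normalised per mg enzyme; duplicate reactions.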

[3] = terephthalic acid (TPA) released, HPLC; higher = more TPA released; extreme values may be limits of the assay; conditions: 24 h
Protocol: as §1

[4] = BHET released, HPLC; higher = more BHET released; extreme values may be limits of the assay; conditions: 24 h
Protocol: as §1

QTNPYARGPNPTAASLEASAGPFTVRSFTVARPVGYGAGTVYYPTNAGGTVGAIAIVPGYTATQSSINWWGPRLASHGFVVITIDTNSTLDKPESRSSQQMAALRQVASLNGTSSSPIYGKVDTARGGVMGWSMGGGGSLISAANNPSLKAAAVMAPWHSSTNFSSVTVPTLIFACENDRIAPVKEYALPIYDSMSLNAKQFLEICGGSHSCACSGNSNQALIGMKGVAWMKRFMDNDTRYSQFACENPNSTAVCDFRTANCS [HotPETase]
Conditions | BHET released, [4] [mM] | PET hydrolysis product formed, [1] | PET hydrolysis product formed, [2] | terephthalic acid, [3] [mM]
PET substrate: aFilm, 60 °C, pH 4.5 | 0 | 0 | 0 | 0
PET substrate: aFilm, 60 °C, pH 5.5 | 0 | 0.126 | 0 | 0.359
PET substrate: aFilm, 60 °C, pH 6.5 | 0 | 0.172 | 0.0257 | 0.226
PET substrate: aFilm, 60 °C, pH 7.5 | 0.045 | 1.02 | 0.0712 | 1.04
PET substrate: aFilm, 60 °C, pH 8.5 | 0 | 0.116 | 0.0455 | 0.135
PET substrate: aFilm, 60 °C, pH 9.5 | 0 | 0.744 | 0.0961 | 1.35
PET substrate: aFilm, 70 °C, pH 4.5 | 0 | 0 | 0 | 0
PET substrate: aFilm, 70 °C, pH 5.5 | 0 | 0 | 0 | 0.00384
PET substrate: aFilm, 70 °C, pH 6.5 | 0 | 0.0334 | 0.00383 | 0.0729
PET substrate: aFilm, 70 °C, pH 7.5 | 0 | 0.0761 | 0.0174 | 0.17
PET substrate: aFilm, 70 °C, pH 8.5 | 0 | 0.049 | 0.0193 | 0.0776
PET substrate: aFilm, 70 °C, pH 9.5 | 0 | 0.175 | 0.092 | 0.684
PET substrate: cryPow, 60 °C, pH 4.5 | 0 | 0 | 0.00338 | 0.0209
PET substrate: cryPow, 60 °C, pH 5.5 | 0.0125 | 0.118 | 0.0775 | 0.1228
PET substrate: cryPow, 60 °C, pH 6.5 | 0.00555 | 0.14 | 0.106 | 0.157
PET substrate: cryPow, 60 °C, pH 7.5 | 0 | 0.195 | 0.131 | 0.3121
PET substrate: cryPow, 60 °C, pH 8.5 | 0 | 0.104 | 0.0736 | 0.211
PET substrate: cryPow, 60 °C, pH 9.5 | 0 | 0.151 | 0.0954 | 0.681
PET substrate: cryPow, 70 °C, pH 4.5 | 0 | 0 | 0 | 0
PET substrate: cryPow, 70 °C, pH 5.5 | 0 | 0.0481 | 0.05472 | 0.07122
PET substrate: cryPow, 70 °C, pH 6.5 | 0.00798 | 0.103 | 0.0748 | 0.118
PET substrate: cryPow, 70 °C, pH 7.5 | 0 | 0.094 | 0.109 | 0.262
PET substrate: cryPow, 70 °C, pH 8.5 | 0 | 0.0775 | 0.0678 | 0.113
PET substrate: cryPow, 70 °C, pH 9.5 | 0 | 0.0809 | 0.0796 | 0.489

QTNPYARGPNPTAASLEASAGPFTVRSFTVSRPSGYGAGTVYYPTNAGGTVGAIAIVPGYTARQSSIKWWGPRLASHGFVVITIDTNSTFDYPSSRSSQQMAALRQVASLNGDSSSPIYGKVDTARMGVMGHSMGGGASLRSAANNPSLKAAIPQAPWDSQTNFSSVTVPTLIFACENDSIAPVNSHALPIYDSMSRNAKQFLEINGGSHSCANSGNSNQALIGKKGVAWMKRFMDNDTRYSTFACENPNSTAVSDFRTANCS [DuraPETase]
Conditions | BHET released, [4] [mM] | PET hydrolysis product formed, [1] | PET hydrolysis product formed, [2] | terephthalic acid, [3] [mM]
PET substrate: aFilm, 60 °C, pH 4.5 | 0 | 0 | 0 | 0.00462
PET substrate: aFilm, 60 °C, pH 5.5 | 0 | 0 | 0 | 0
PET substrate: aFilm, 60 °C, pH 6.5 | 0 | 0 | 0 | 0
PET substrate: aFilm, 60 °C, pH 7.5 | 0.0050186 | 0.0929 | 0 | 0.102
PET substrate: aFilm, 60 °C, pH 8.5 | 0 | 0.0536 | 0 | 0.0886
PET substrate: aFilm, 60 °C, pH 9.5 | 0 | 0.126 | 0.0223 | 0.344
PET substrate: aFilm, 70 °C, pH 4.5 | 0 | 0 | 0 | 0
PET substrate: aFilm, 70 °C, pH 5.5 | 0 | 0 | 0 | 0
PET substrate: aFilm, 70 °C, pH 6.5 | 0 | 0 | 0 | 0
PET substrate: aFilm, 70 °C, pH 7.5 | 0 | 0.00371 | 0 | 0.0128
PET substrate: aFilm, 70 °C, pH 8.5 | 0 | 0.00439 | 0 | 0.0158
PET substrate: aFilm, 70 °C, pH 9.5 | 0 | 0.0201 | 0.0191 | 0.0892
PET substrate: cryPow, 60 °C, pH 4.5 | 0 | 0 | 0 | 0
PET substrate: cryPow, 60 °C, pH 5.5 | 0 | 0 | 0 | 0
PET substrate: cryPow, 60 °C, pH 6.5 | 0 | 0.0167 | 0 | 0.00832
PET substrate: cryPow, 60 °C, pH 7.5 | 0.00475 | 0.0809 | 0.0496 | 0.0835
PET substrate: cryPow, 60 °C, pH 8.5 | 0 | 0.0578 | 0.032 | 0.0926
PET substrate: cryPow, 60 °C, pH 9.5 | 0 | 0.0891 | 0.0701 | 0.384
PET substrate: cryPow, 70 °C, pH 4.5 | 0 | 0 | 0 | 0
PET substrate: cryPow, 70 °C, pH 5.5 | 0 | 0 | 0 | 0
PET substrate: cryPow, 70 °C, pH 6.5 | 0 | 0 | 0 | 0
PET substrate: cryPow, 70 °C, pH 7.5 | 0 | 0.0465 | 0.0447 | 0.12
PET substrate: cryPow, 70 °C, pH 8.5 | 0 | 0.0236 | 0.0151 | 0.0557
PET substrate: cryPow, 70 °C, pH 9.5 | 0 | 0 | 0.0191 | 0.0155
